Experiments:
[1] = molecular target: GST-pre-S1 (1st to 56th amino acids) protein (hepatitis B virus) [GST: P08515]; test: BLI (Octet Red), antibody captured on anti-human Fc tip, GST-pre-S1 in solution
[2] = molecular target: GST-pre-S1 (1st to 56th amino acids) protein (hepatitis B virus) [GST: P08515]; test: competitive ELISA and BLI (Octet Red)

GST-pre-S1 (1st to 56th amino acids) protein (hepatitis B virus) [GST: P08515], sequence (P08515 whole entry): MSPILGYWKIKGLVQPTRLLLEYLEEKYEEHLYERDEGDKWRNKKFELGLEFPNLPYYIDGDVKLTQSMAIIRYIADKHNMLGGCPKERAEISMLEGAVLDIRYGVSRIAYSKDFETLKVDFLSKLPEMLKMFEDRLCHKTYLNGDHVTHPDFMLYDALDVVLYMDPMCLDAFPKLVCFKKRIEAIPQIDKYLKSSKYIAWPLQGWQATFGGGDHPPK

B1: humanized antibody HzKR127-3.1 (antibody, V domains shown)
VH: QVQLQQSGAEVKKPGASVKVSCKASGYTFTSSWMNWVRQAPGQGLEWMGRIYPGDGDTNYAQKFQGRVTMTADKSTSTVYMELSSLRSEDTAVYYCAREYAEAYWGQGTLVTVSS
VL: DIVMTQTPLSLSVTPGQPASISCKSSQSLLYSNGKTYLNWLLQKPGQPPQRLIYLVSNRDSGVPDRFSGSGSGTDFTLKISRVEAEDVGVYYCVQGTHFPQTFGGGTKVEIKR
- Kd [1]: 813 pM
- koff [1]: 4.13e-05 s⁻¹
- kon [1]: 50800 M⁻¹ s⁻¹
- fold higher affinity than HzKR127-3 [2]: 4.9 fold
